Reference: US20210380703A1
Residue numbers refer to the chain shown, from its start.

B1: 368_C11 (antibody, V domains shown)
VH: EVQLLESGGGLVQPGGSLRLSCAASGFTFSDYSMNWVRQAPGKGLEWVSSINYNSGYKSYADSVKGRFTISRDNSKNTLYLQMNSLRAEDTAVYYCARGATWHDTHLDYWGQGTLVTVSS
VL: DIQMTQSPSSLSASVGDRVTITCRASQSIISYLNWYQQKPGKAPKLLIYAATSRASGVPSRFSGSGSGTDFTLTISSLQPEDFATYYCQQSYDNPLTFGGGTKVEIK
B2: 371_E09 (antibody, V domains shown)
VH: B1 VH with S50G, K58T
VL: B1 VL with I30L, S31T, D93N, N94S
B3: 372_E08 (antibody, V domains shown)
VH: B1 VH with S50N, S55G, K58T
VL: B1 VL with S31T, D93N, N94L
B4: 368_H11 (antibody, V domains shown)
VH: B1 VH with S30D, D31S, S33G, N35H, S49A, S55G, K58T
VL: B1 VL with I30L, Y92D, N94T
B5: 371_H11 (antibody, V domains shown)
VH: B1 VH with D31S, S50G, S55G, S59G
VL: B1 VL with I30L, S31T, A51T, A55H, D93E, N94S
B6: 368_G03 (antibody, V domains shown)
VH: B1 VH with D31S, S50G, K58T, H106A
VL: B1 VL with I30L, L47V, N94T
B7: 369_D08 (antibody, V domains shown)
VH: B1 VH with S49A, S55G, S59G
VL: B1 VL with I30L, S31T, N94T
B8: 371_F03 (antibody, V domains shown)
VH: B1 VH with D31S, S50G, S55G, K58T
VL: B1 VL with S31T, R54L, A55H
B9: 370_D03 (antibody, V domains shown)
VH: B1 VH with D31S, S49A, S55G, K58T
VL: B1 VL with S31T, N94L
B10: 370_D09 (antibody, V domains shown)
VH: B1 VH with S50G, K58T
VL: B1 VL with I30V, S31T, L47V, N94T
B11: 369_H08 (antibody, V domains shown)
VH: B1 VH with D31S, S49A, S50G
VL: B1 VL with I30L, L33V, L47V, R54L, D93E, N94S
B12: 369_A11 (antibody, V domains shown)
VH: B1 VH with S30D, D31S, S33G, S49A, S50N, S55G, S59G
VL: B1 VL with S31T, L47V, A55H, D93E, N94S
B13: 370_F01 (antibody, V domains shown)
VH: B1 VH with D31S, S33G, S50N, S55G, K58T
VL: B1 VL with I30V, N94S
B14: 371_G01 (antibody, V domains shown)
VH: B1 VH with S50N, S55G, K58T
VL: B1 VL with I30L, S31T, R54L, N94L
B15: 369_H02 (antibody, V domains shown)
VH: B1 VH with S30D, S50N, S55G
VL: B1 VL with N94S
B16: 370_H06 (antibody, V domains shown)
VH: B1 VH with S30D, S49A, S50N, S55G, K58T, S59G
VL: B1 VL with I30L, S31T, D93E, N94T
B17: 369_E05 (antibody, V domains shown)
VH: B1 VH with S33G, S49A, S50N, S55G
VL: B1 VL with I30L, S31T, R54L, D93E, N94T
B18: 369_E08 (antibody, V domains shown)
VH: B1 VH with D31S, S49A, K58T, S59G
VL: B1 VL with I30L, S31T, L33V, N94S
B19: 371_F09 (antibody, V domains shown)
VH: B1 VH with D31S, S49A, S50G, S55G, K58T
VL: B1 VL with I30L, S31T
B20: 370_G08 (antibody, V domains shown)
VH: B1 VH with S49A, S50G, S55G, K58T, S59G
VL: B1 VL with I30L, S31T, L47V, D93E, N94S
B21: 370_E05 (antibody, V domains shown)
VH: B1 VH with D31S, S33G, S50N, S55G, S59G
VL: B1 VL with I30S, S31T, L47V, A51V, D93N, N94S
B22: 369_F09 (antibody, V domains shown)
VH: B1 VH with D31S, S33G, N35H, S49A, S50G, S55G, K58T
VL: B1 VL with I30L, S31T, L33V, N94S
B23: 371_C07 (antibody, V domains shown)
VH: B1 VH with S30D, D31S, S33G, S50N, S55G, K58T, S59G, H106A
VL: B1 VL with I30L, R54L, N94T
B24: 371_C06 (antibody, V domains shown)
VH: B1 VH with D31S, S55G, K58T
VL: B1 VL with I30S, A51V, N94L
B25: 370_F02 (antibody, V domains shown)
VH: B1 VH with S30D, D31S, S33G, S49A, S50N, S55G, K58T, S59G
VL: B1 VL with I30L, A51V, A55H, N94S
B26: 370_B08 (antibody, V domains shown)
VH: B1 VH with S49A, S50N, S55G, K58T, S59G
VL: B1 VL with I30L, T52S, R54L, A55Q, N94S
B27: 369_G05 (antibody, V domains shown)
VH: B1 VH with D31S, S49A, S50G, S55G, K58T
VL: B1 VL with I30V, A55H, N94S
B28: 370_C07 (antibody, V domains shown)
VH: B1 VH with D31S, S49A, S50N, S55G
VL: B1 VL with I30L, A55H, D93E, N94S
B29: 368_H06 (antibody, V domains shown)
VH: B1 VH with S30D, D31S, S33G, N35H, S49A, S50N, S55G
VL: B1 VL with I30L, S31T, L33V, A51T
B30: 370_H04 (antibody, V domains shown)
VH: B1 VH with D31S, S50N, S55G, K58T, S59G
VL: B1 VL with I30L, L33V, N94L
B31: 374_A04 (antibody, V domains shown)
VH: B1 VH with D31S, S49A, S50G, S55G, K58T
VL: B1 VL with I30L, S31T, L47V, N94T
B32: 373_B09 (antibody, V domains shown)
VH: B1 VH with S30D, D31S, S50G, S55G
VL: B1 VL with I30L, L47V, R54L, D93E, N94T
B33: 368_D02 (antibody, V domains shown)
VH: B1 VH with S30D, S33G, S50N, S55G, K58T, S59G
VL: B1 VL with I30S, S31T, L47V, A55H, N94T
B34: 368_F06 (antibody, V domains shown)
VH: B1 VH with S30D, N35H, S49A, S50N, K58T, S59G
VL: B1 VL with I30L, L47V, A51T, D93E
B35: 370_F12 (antibody, V domains shown)
VH: B1 VH with S49A, S50N, S55G, K58T, S59G
VL: B1 VL with I30L, T52S, R54L, A55Q, N94S
B36: 369_F05 (antibody, V domains shown)
VH: B1 VH with D31S, S50G, S55G
VL: B1 VL with I30S, T52S, R54L, A55Q, S91G, N94S
B37: 371_B01 (antibody, V domains shown)
VH: B1 VH with S30D, D31S, S50N, K58T, S59G
VL: B1 VL with I30L, L33V, R54L, N94L
B38: 373_D06 (antibody, V domains shown)
VH: B1 VH with D31S, S49A, S50G, S55G, K58T
VL: B1 VL with I30V, S31T, N94T
B39: 370_E04 (antibody, V domains shown)
VH: B1 VH with D31S, S49A, S50N, S55G, S59G
VL: B1 VL with I30L, S31T, A51V, R54L, A55H, D93E, N94T
B40: 371_E12 (antibody, V domains shown)
VH: B1 VH with S30D, D31S, S50G
VL: B1 VL with I30L, R54L, N94T
B41: 372_H11 (antibody, V domains shown)
VH: B1 VH with D31S, S33G, N35H, S49A, S50G, S55G, K58T
VL: B1 VL with I30L, L33V, D93E
B42: 368_D12 (antibody, V domains shown)
VH: B1 VH with D31S, S33G, S55G, K58T
VL: B1 VL with I30L, L33V, L47V, D93N
B43: 371_E08 (antibody, V domains shown)
VH: B1 VH with D31S, S50N
VL: B1 VL with I30V, L33V, L47V, A55H, N94L
B44: 369_C12 (antibody, V domains shown)
VH: B1 VH with D31S, S33G, S49A, S50N, S55G, S59G
VL: B1 VL with I30L, S31T, A55H, N94T
B45: 373_F07 (antibody, V domains shown)
VH: B1 VH with D31S, S50G
VL: B1 VL with I30L, R54L, D93E, N94T
B46: 369_H12 (antibody, V domains shown)
VH: B1 VH with D31S, S49A, S50G, S55G
VL: B1 VL with I30V, S31T, L33V, L47V, N94S
B47: 368_G10 (antibody, V domains shown)
VH: B1 VH with D31S, N35H, S55G, K58T
VL: B1 VL with I30V, L33V, L47V, N94T
B48: 372_B09 (antibody, V domains shown)
VH: B1 VH with D31S, K58T
VL: B1 VL with I30L, S31T, D93E, N94T

Target: Human Fc (human)
Experiment: ELISA; negative control

Compared with B1, B2 is higher in optical density: 0.275 OD for the first, 0.306 OD for the second.

Going from B3 to B4, the optical density falls from 0.369 OD to 0.355 OD.

Compared with B5, B6 is lower in optical density: 0.363 OD for the first, 0.312 OD for the second.

Going from B7 to B8, the optical density rises from 0.241 OD to 0.252 OD.

Going from B9 to B10, the optical density falls from 0.57 OD to 0.287 OD.

Going from B11 to B12, the optical density falls from 0.389 OD to 0.366 OD.

Going from B13 to B14, the optical density falls from 0.407 OD to 0.375 OD.

Compared with B15, B16 is lower in optical density: 0.408 OD for the first, 0.358 OD for the second.

Compared with B17, B18 is lower in optical density: 0.282 OD for the first, 0.272 OD for the second.

Compared with B19, B20 is lower in optical density: 0.602 OD for the first, 0.364 OD for the second.

Compared with B21, B22 is higher in optical density: 0.427 OD for the first, 0.5 OD for the second.

Compared with B23, B24 is higher in optical density: 0.287 OD for the first, 0.308 OD for the second.

Going from B25 to B26, the optical density falls from 0.376 OD to 0.302 OD.

Going from B27 to B28, the optical density falls from 0.384 OD to 0.316 OD.

Compared with B29, B30 is higher in optical density: 0.311 OD for the first, 0.596 OD for the second.

First: B31
Second: B32
The optical density of the first is higher: 0.275 OD for the first, 0.172 OD for the second.

First: B33
Second: B34
The optical density of the first is higher: 0.321 OD for the first, 0.249 OD for the second.

Going from B35 to B36, the optical density falls from 0.457 OD to 0.331 OD.

Going from B37 to B38, the optical density falls from 0.464 OD to 0.192 OD.

Compared with B39, B40 is higher in optical density: 0.292 OD for the first, 0.398 OD for the second.

First: B41
Second: B42
The optical density of the first is higher: 0.392 OD for the first, 0.329 OD for the second.

Going from B43 to B44, the optical density rises from 0.251 OD to 0.418 OD.

Going from B45 to B46, the optical density rises from 0.172 OD to 0.414 OD.

First: B47
Second: B48
The optical density of the first is higher: 0.356 OD for the first, 0.308 OD for the second.
